Paper PMC7427095 (2020)
Several values for one entry are separate records, joined by “and”; a condition that tells them apart may be missing. Identical values can stand only once.

Key:
[1] = target: His6-HA4-AsLOV2 (SS58 insertion, C450V mutant) (Avena sativa); experiment: BLI; Octet RED96e; 6x-histidine tagged OptoMB variant loaded on Ni-NTA sensors, YFP-SH2 in solution at several concentrations; Buffer A (Tris 50 mM pH 8.0, NaCl 150 mM); illumination: 450 nm light (blue LED panel above the plate, lid open); binding and unbinding curves fitted together to a mass-action model; single experiments
[2] = target: HA4-AsLOV2 (SS58 insertion, V416L mutant) (Avena sativa); experiment: as above
[3] = target: His6-HA4-AsLOV2 (SS58 insertion, C450V mutant) (Avena sativa); experiment: BLI; Octet RED96e; 6x-histidine tagged OptoMB variant loaded on Ni-NTA sensors, YFP-SH2 in solution at several concentrations; Buffer A (Tris 50 mM pH 8.0, NaCl 150 mM); illumination: ambient (ambient laboratory light and the instrument's internal light sufficed to trigger the lit conformation of the light-sensitive constructs); binding and unbinding curves fitted together to a mass-action model; single experiments
[4] = target: His6-SUMO-HA4-AsLOV2 (SS58 insertion, V416I, G528A, N538E mutant) (Avena sativa); experiment: as above
[5] = target: HA4-AsLOV2 (SS58 insertion, V416L mutant) (Avena sativa); experiment: as above
[6] = target: His6-HA4-AsLOV2 (SS58 insertion): αSH2-OptoMB (Avena sativa); experiment: as above
[7] = target: T1, OptoMB_(C450V), His-tagged (Avena sativa, UniProt O49003 408-543, C450V); experiment: BLI; DARK conformation: Octet RED96e, no external light source; His-tagged OptoMB_(C450V) loaded on Ni-NTA sensors, YFP-SH2 in solution; Buffer A (Tris 50 mM pH 8.0, NaCl 150 mM)
[8] = target: T1, OptoMB_(C450V), His-tagged; experiment: BLI; dark
[9] = target: T2, OptoMB_(V416L), His-tagged (Avena sativa, UniProt O49003 408-543, V416L); experiment: BLI; light
[10] = target: T2, OptoMB_(V416L), His-tagged; experiment: BLI; light; remark: listed apart in the source
[11] = target: T2, OptoMB_(V416L), His-tagged; experiment: BLI; LIGHT conformation: Octet RED96e with the lid open and a blue LED panel above the plate (for the V416I-G528A-N538E variant pre-illumination); His-tagged OptoMB variants loaded on Ni-NTA sensors, YFP-SH2 in solution; Buffer A (Tris 50 mM pH 8.0, NaCl 150 mM)
[12] = target: αSH2 OptoMonobody (OptoMB), His-tagged, wild-type AsLOV2 (Avena sativa) (UniProt O49003); experiment: as above
[13] = target: Monobody HA4 (6x-histidine tagged); experiment: BLI; Octet RED96e; His-tagged HA4 loaded on Ni-NTA sensors, YFP-SH2 in solution; Buffer A (Tris 50 mM pH 8.0, NaCl 150 mM); state of illumination not given ('–')
[14] = target: T1, OptoMB_(C450V), His-tagged; experiment: BLI; dark; remark: listed apart in the source

B1: YFP-SH2 (fusion of yellow fluorescent protein and the SH2 domain of human Abl kinase), purified (domain or fragment)
chain: SLEKHSWYHGPVSRNAAEYLLSSGINGSFLVRESESSPGQRSISLRYEGRVYHYRINTASDGKLYVSSESRFNTLAELVHHHSTVADGLITTLHYPAPKRNKPTVYGVSPNY
Question: With B1 as the binder, how does the Kd [1] read?
Answer: 0.27 µM

Question: What about the koff [1] of the same binder?
Answer: 0.013 s⁻¹

Question: What about the kon [1] of the same binder?
Answer: 48000 M⁻¹ s⁻¹

Question: And the Kd [2]?
Answer: 60 µM and 42 µM

Question: What about the koff [2] of the same binder?
Answer: 0.2 s⁻¹ and 0.24 s⁻¹

Question: What about the kon [2] of the same binder?
Answer: 3300 M⁻¹ s⁻¹ and 5800 M⁻¹ s⁻¹

Question: What about the Kd [3] of the same binder?
Answer: 0.06 µM and 0.23 µM

Question: And the koff [3]?
Answer: 0.006 s⁻¹ and 0.013 s⁻¹

Question: And the kon [3]?
Answer: 110000 M⁻¹ s⁻¹ and 56000 M⁻¹ s⁻¹

Question: What about the Kd [4] of the same binder?
Answer: > 100 µM

Question: What about the kon [4] of the same binder?
Answer: < 1000 M⁻¹ s⁻¹

Question: What about the Kd [5] of the same binder?
Answer: 87 µM

Question: What about the koff [5] of the same binder?
Answer: 0.25 s⁻¹

Question: What about the kon [5] of the same binder?
Answer: 2900 M⁻¹ s⁻¹

Question: And the Kd [6]?
Answer: > 100 µM

Question: What about the kon [6] of the same binder?
Answer: < 1000 M⁻¹ s⁻¹

B2: YFP-SH2, purified (fusion of YFP and the SH2 domain of human Abl kinase) (domain or fragment)
chain: SLEKHSWYHGPVSRNAAEYLLSSGINGSFLVRESESSPGQRSISLRYEGRVYHYRINTASDGKLYVSSESRFNTLAELVHHHSTVADGLITTLHYPAPKRNKPTVYGVSPNY
Question: What does the source list for B2?
Answer: Kd [7]: 0.19 µM; koff [7]: 0.01 s⁻¹; kon [7]: 71000 M⁻¹ s⁻¹; koff [8]: 0.00599 s⁻¹; Kd [9]: 86.7 µM; koff [10]: 0.254 s⁻¹; Kd [11]: 63 µM; koff [11]: 0.23 s⁻¹; kon [11]: 4000 M⁻¹ s⁻¹; Kd [12]: > 100 µM; kon [12]: < 1000 M⁻¹ s⁻¹; Kd [13]: 0.23 µM; koff [13]: 0.0145 s⁻¹; kon [13]: 63100 M⁻¹ s⁻¹; Kd [14]: 0.0569 µM
